{
  "source": "patent US20100160617",
  "key": {"[1]": {"molecular_target": "HCV NS5B RNA-dependent RNA polymerase (Hepatitis C virus) (UniProt P26663)", "sequence (P26663 2420-3010)": "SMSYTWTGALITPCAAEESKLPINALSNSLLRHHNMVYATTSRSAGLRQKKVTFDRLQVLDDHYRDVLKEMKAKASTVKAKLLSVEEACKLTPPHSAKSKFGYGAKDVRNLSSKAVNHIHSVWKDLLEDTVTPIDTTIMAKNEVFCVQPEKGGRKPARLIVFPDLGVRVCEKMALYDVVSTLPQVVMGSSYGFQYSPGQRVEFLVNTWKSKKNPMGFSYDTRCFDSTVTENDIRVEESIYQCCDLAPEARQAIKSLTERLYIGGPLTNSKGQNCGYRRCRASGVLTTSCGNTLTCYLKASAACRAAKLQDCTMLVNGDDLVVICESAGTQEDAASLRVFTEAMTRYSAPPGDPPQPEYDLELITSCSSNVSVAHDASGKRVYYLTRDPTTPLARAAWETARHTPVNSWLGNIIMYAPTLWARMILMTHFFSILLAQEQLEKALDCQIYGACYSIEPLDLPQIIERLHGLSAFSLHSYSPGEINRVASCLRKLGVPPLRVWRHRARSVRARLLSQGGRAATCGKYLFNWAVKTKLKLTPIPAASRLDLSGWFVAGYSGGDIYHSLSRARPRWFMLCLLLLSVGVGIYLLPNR", "test": "SPR", "conditions": "2'-F on all C and U"}, "[2]": {"molecular_target": "HCV NS5B RNA-dependent RNA polymerase (Hepatitis C virus) (UniProt P26663)", "test": "EMSA", "conditions": "2'-F on all C and U; apparent Kd; 4% nondenaturing gel"}},
  "data": [
    {"sequence": "AACGAUUGGUAGUAGAAUAUCGU [RNA aptamer #9-t3]", "values": [
      {"measurement": "Kd", "setting": "[1]; 5' end of the transcript may carry extra G from T7 primer", "result": 40.4, "unit": "nM"}
    ]},
    {"sequence": "GCUGGGCCUUGAACGAUUGGUAGUAGAAUAUCGUCAGUGAACGGC [RNA aptamer #9-t1]", "values": [
      {"measurement": "Kd", "setting": "[1]", "result": 8.4, "unit": "nM"}
    ]},
    {"sequence": "GGGAGAGCGGAAGCGUGCUGGGCCUUGAACGAUUGGUAGUAGAAUAUCGUCAGUGAACGGCAGUCAUAACCCAGAGGUCGAUGGAUCCU [RNA aptamer #9]", "values": [
      {"measurement": "Kd", "setting": "[2]", "result": 18, "unit": "nM"}
    ]},
    {"sequence": "GUUGAACGAUUGGUAGUAGAAUAUCGUCAG [RNA aptamer #9-t2]", "values": [
      {"measurement": "Kd", "setting": "[1]; listing SEQ 4 lacks the 5' G printed in text", "result": 2.6, "unit": "nM"}
    ]},
    {"sequence": "GGGAGAGCGGAAGCGUGCUGGGCCGACAGGGUAGCUUACAGCUGCAUGAUCGCUAGAGGGCGAACAUAACCCAGAGGUCGAUGGAUCCCCCC [RNA aptamer #24]", "values": [
      {"measurement": "Kd", "setting": "[2]", "result": 5, "unit": "nM"}
    ]}
  ]
}
